Measurements as given in the Immune Epitope Database (IEDB).

Tests used:
[1] = target: HLA-B*51:01; assay: IEDB peptide-MHC binding, purified MHC/competitive/radioactivity; filed as Kd, often an IC50 or EC50 that approximates it; ≥ and ≤ were set here for values at or beyond the usual limits of such assays
[2] = target: HLA-A*02:01; assay: IEDB peptide-MHC binding, purified MHC/competitive/fluorescence; ≥ and ≤ were set here for values at or beyond the usual limits of such assays
[3] = target: HLA-A*24:02; assay: as above
[4] = target: HLA-A*02:01; assay: IEDB peptide-MHC binding, purified MHC/competitive/radioactivity; filed as Kd, often an IC50 or EC50 that approximates it; ≥ and ≤ were set here for values at or beyond the usual limits of such assays; details: source organism: Hepatitis B virus
[5] = target: HLA-B*08:01; assay: as above
[6] = target: HLA-A*11:01; assay: IEDB peptide-MHC binding, purified MHC/direct/fluorescence; filed as Kd, often an IC50 or EC50 that approximates it; ≥ and ≤ were set here for values at or beyond the usual limits of such assays; details: source organism: SARS-CoV1
[7] = target: HLA-A*69:01; assay: as above; details: source organism: SARS-CoV1
[8] = target: HLA-B*07:02; assay: as above; details: source organism: SARS-CoV1
[9] = target: HLA-B*15:01; assay: as above; details: source organism: SARS-CoV1
[10] = target: HLA-B*58:01; assay: as above; details: source organism: SARS-CoV1
[11] = target: HLA-B*27:05; assay: as above; details: source organism: Tacaribe virus strain V7
[12] = target: HLA-A*01:01; assay: as above; details: source organism: SARS-CoV1
[13] = target: HLA-A*02:01; assay: as above; details: source organism: SARS-CoV1
[14] = target: HLA-A*03:01; assay: as above; details: source organism: SARS-CoV1
[15] = target: HLA-A*31:01; assay: as above; details: source organism: SARS-CoV1
[16] = target: HLA-B*08:01; assay: as above; details: source organism: SARS-CoV1
[17] = target: HLA-A*23:01; assay: IEDB peptide-MHC binding, purified MHC/competitive/radioactivity; filed as Kd, often an IC50 or EC50 that approximates it; ≥ and ≤ were set here for values at or beyond the usual limits of such assays; details: source organism: SARS coronavirus Tor2
[18] = target: HLA-A*24:02; assay: as above; details: source organism: SARS coronavirus Tor2
[19] = target: HLA-A*26:01; assay: as above; details: source organism: SARS coronavirus Tor2
[20] = target: HLA-A*29:02; assay: as above; details: source organism: SARS coronavirus Tor2
[21] = target: HLA-A*30:02; assay: as above; details: source organism: SARS coronavirus Tor2
[22] = source organism: Zaire ebolavirus
[23] = source organism: Vaccinia virus WR
[24] = source organism: Vaccinia virus

## GPLVAGGLLI
[1]; source organism: Dengue virus 3 Martinique/1243/1999
  Kd: 6030 nM

## PWLTEKEAM
[2]; [22]
  IC50: ≥ 216000 nM
[3]; [22]
  IC50: 435 nM

## SIVSPFIPLL
[4]
  Kd: ≥ 25000 nM

## MVQADSGCVV
[1]; source organism: Dengue virus 2 Jamaica/1409/1983
  Kd: ≥ 30500 nM

## EARKTFVEL
[5]; source organism: Dengue virus 1 Brazil/97-11/1997
  Kd: 97.1 nM

## NMKFKNSVE
[5]; [23]
  Kd: 1340 nM

## EPKISLLPL
[5]; [23]
  Kd: 8.53 nM

## TTLPVNVAF
[6]
  Kd: ≥ 27300 nM
[7]
  Kd: 20 nM
[8]
  Kd: 5760 nM
[9]
  Kd: 1760 nM
[10]
  Kd: 328 nM

## FGNLSPETL
[2]; [24]
  IC50: 59500 nM
[3]; [24]
  IC50: 57800 nM

## IRELMSVPY
[11]
  Kd: ≥ 20000 nM

## LAKRFSRGL
[5]; source organism: Dengue virus 3 Singapore/8120/1995
  Kd: 962 nM

## LPMLYFLYV
[5]; [23]
  Kd: 2.51 nM

## FMGRIRSVY
[12]
  Kd: 5870 nM
[13]
  Kd: 9160 nM
[14]
  Kd: 2340 nM
[6]
  Kd: 18200 nM
[15]
  Kd: 123 nM
[16]
  Kd: 604 nM
[9]
  Kd: 393 nM
[10]
  Kd: 6000 nM
[17]
  Kd: ≥ 77800 nM
[18]
  Kd: ≥ 55900 nM
[19]
  Kd: 2240 nM
[20]
  Kd: 1.7 nM
[21]
  Kd: 0.157 nM

## MPTYKHLIM
[5]; [23]
  Kd: 0.13 nM
